Laboratory results as given in the DeepSol protein solubility set.

assay: soluble on expression in E. coli; label from the status in PepcDB or PDB records

| Sequence | soluble on expression in E. coli |
| --- | --- |
| MRPDFGTDGRLPSALSMGTADVAFHLATGGNPVPLAFTFGFEGRAPTLDSVRARVAERVHHVPALRYRIARDRRKFRRVDRIAVDRHVHEAWLPEDTDGSATSRLMLSRPMSTDDRPPWDVWLVHGPAERHTLVYRTDHTFQDGMGAAYTARALLGDHPEGGPAPQRPARPTAHGLADALGEVVAAFRAPTPKPAFDGDFTGRVDVCHADTPLARLRAIARAHGGTVTDVYLAALSHAVRTWYLKDTGSAHPPLPVSIPMSVRAPGEEYAPGNRMVTARLLLPCDEESPQRALARVVAGTGRLRESRRRDAMRLLLSASPRALGATVGTRLVRGAFVAGPVSSVNFGTALVHQGVAARRSAVFAGVASGIRCVTTLTSQHDTACLTVVHDEALATADELPDLWLAALLELERPLEHHHHHH | not soluble |
| MRPEHLSLQLLAWIYLINGNPIVQKGGLEVLDITDSNDLSVRQRFEEVIRLDCASQRRKALKRKTDGDARIYIPTCSPKNSLLYDKVQCYDVSIYCWCVDELSGEPKLGSSTTRGKPKCEETPTTTVAPKRVRRNNRCKEKKRTRFLRRLVSTLKSEMIMSGINATKVSRDSAIRWKFNQLNINHNNVLERSEWKPFKSVLLEWKNVRQCSRNLFKTCDLNKDRKLTFDEWRKCIVQEINRVPAKRPDQLNPFLYILRSE | soluble |
| MRPIEEFVYVGNQVIVPDQASLMRCYYPIIGGEGYALYQYFVAFYDNGNHRHKFATILNHLNFGMQPLQESLAVLTAVDLLAFYHSPQGIYVVELKSPLSIEQFLKHAVYSSLLEQKIGEPAVDALKPTSLHGLQDLSKRFSDVFTDERLAQKSVSEIKPKNSFDLISFRNRMQADGLVFTDEKTDVPEIYKLSETYDMNWYDTYLLSKKTAVNHRIIVKRMQVQLEQAQAQKLGGDSALTETEKKILKAVKSGKPVDYLQSAKGPGGTVTNSEKKILTDLAQRGFMDEVINLMVAYSLGRTRSTNVNREYISKVANDFDFKKIVTAEQGLLALRSGYDKKSQRAKDDSKKKTNVPSWSDPDYDNQTNQADQAKLDEIRRRALAKLEKG | not soluble |
| MRQHRPALELSRLPELLSRIDGYKGQPVTRLAVMLNLLVFIRSSELRYARWSEIDIDNSMWTIPAEREPLPGVKFSHRGSKMRTPHLVPLSKQVVAILAELQTWAGENGLIFTGAHDPRKPISENTVNKALRVMGYDTTQEVCGHGFRAMACSALIESGLWSRDAVERQMSHQELEHHHHHH | not soluble |
| MRQIETQQLEAETSFTERIAEDRVKCAAQRESLERQLQDLTATDNKLSEQKRDWEERQEKAYDELMSYLENEDVDSAGTQFGDHFNSLIKSMNNLSHDSMNGQFNSLKNNLDELNIEKKQLEVAIADQSSTISEMIPSLRPTCGATYKERNTLRIIFHYQVAKLRSEYQKCRLQEEALKARLST | not soluble |
| MRQQNGWVLKGGTNIYCRIPGARQTKDLDLYRRDDPTSSTGAAESLVSAMNGYKIGPYIFHVIHPRQSGGVGTVDSERIDVTVIHGINNRLVSFGVDVSGDLEVTGTVEPVTVATSYKVHTEFLPQRFKVYSYPVASQIADKICAMYERHGNTPPGRASTRYHDLYDVALMARELTVSAFDLRSALDTQCRVRNMSLPNHLTIPDESWKDQYPIKARNFGDEQWGLTELDEALRVAGLLINPILNREFKESDRAWNCTALLWE | not soluble |
| MRQYVCCNYNEKEIKMKKFHFTDTSLFWGFSEEEAESVLKCLSAVNKTYKKDEYIFRMGDTITSVGMVLTGSVQVIREDYWGNRQIIAVMGEGQLFGESYACAGGEPLMVSVMAEENTEVLFLEVGRLLTVCSMACRFHSRVIQNLLKVIAGRNLTLTTKIDHMSKKTIREKVLSYLSYQAEKQGKNRFEIPFNRQQLADYLAVDRSALSAELSKMQKEKLISYDRNHFILP | not soluble |
| MRRILVLTKNILVEQTFQQQLQHLNYEVFCTNCCEETIEHELTFFNYFDAIVLSETLSQNDCLRLLGSLSSLEKPIYRRSQSMCNKREAEIWQERGIIRWLGLKDSLEDIREKIDTVDQSFAEVTAELLDDQVKKIRFTKNEQRFLKILYQHAHEGLDRDQICRLLWQKEPDASTKSQLSFVCKRVKQKFSDAGMNEEIITTYWGKGYQINEQILPYLEQTLFETAQ | not soluble |
| MRRNIRVTLGAATIVAALGLSGCSHPEFKRSSPPAPSLPPVTSSPLEAAPITPLPAPEALIDVLSRLADPAVPGTNKVQLIEGATPENAAALDRFTTALRDGSYLPMTFAANDIAWSDNKPSDVMATVVVTTAHPDNREFTFPMEFVSFKGGWQLSRQTAEMLLAMGNSPDSTPSATSPAPAPSPTPPG | soluble |
| MRRYFGTDGVRGEAGKPPLTPEFVLKLGQAAGAYFLAQEKRPVVLLAKDTRESSDLLEAALAAGLMSQGVRVEHLGVLPTPGVAHLTKALKATAGAVISASHNPYQDNGIKFFGPTGEKLPDGAEEEIERLLLEDHPTRGIGTVGDFREAERMYLDFLLAHAPDLTGLKVGLDLAHGATYRIGPKLFQKAGAEVMAFFNTPDGRNINRGCGSTHPEALSRFVVELGLDLGIAFDGDGDRVQFIDRKGRLFHGDHVLYLAALAFGEKGVVGTVMSNMALEVALKERGLAFHRAAVGDRYVLEKLKETGLALGGEPSGHVIFLRHHTTGDGLLTALLTLKALKALGGDLADWYEALPLYPQVLLNVRVSDKAKVMADPRLGEAVREAEARLGGRGRVNVRPSGTEPVVRVMVEAEEGAEEVARELAERVRALSQEAQAV | soluble |
| MRRYLMDYSQYNLEKTGYLKEDFRLFHINDQTKKDFSYHYHDFHKIIVFISGKVTYHIEGKAYHLKPRDILLVSQGAIHKPEIDPSVPYERYIFWIRDDLSCQELNTCFQKANDRSFNLVRADSALQERLKDLLPEIEQTLQNKHFGDTVLRNALFTQFMIYINRIFLRTSSSPDKKTYSSDTQ | not soluble |
| MRSAVSKVEESIEVAVPVSTAYNQWTQFEEFPQFMGGVERIEQQTATLTHWVTKVGGVTREFDAEIVEQIPDEQVSWTTVGGDVHQAGVVTFHRLDDRRTKVMLQMDHDSKGVVDAVGDKLGVVKHQVSEDLKRFKSFIENRGLEHHHHHH | not soluble |
| MRSLARGVTTNISKLIEARPKNTGQTVYLTHVKWVTGKSQLEHYFKRYGSIQSVNMFYDPDTGLHRGFASITFDSKDGANKAIEQRPHVIDGDRVDVEPYIPLISKNKKKDLML | not soluble |
| MRSLTHIAKIELPPVRRVTYVKHYSIQPANLEFNAEGTPVSRDFDDVYFSNDNGLEETRYVFLGGNQLEARFPEHPHPLFVVAESGFGTGLNFLTLWQAFDQFREAHPQAQLQRLHFISFEKFPLTRADLALAHQHWPELAPWAEQLQAQWPMPLPGCHRLLLDEGRVTLDLWFGDINELISQLDDSLNQKVDAWFLDGFAPAKNPDMWTQNLFNAMARLARPGGTLATFTSAGFVRRGLQEAGFTMQKRKGFGRKREMLCGVMEQTLPLPCSTPWFNRTGSSKREVAIIGGGIASALLSLALLRRGWQVTLYCADEAPALGASGNRQGALYPLLSKHDEALNRFFSNGFTFARRLYDSLPVKFDHDWCGVTQLGWDEKSQHKIAQMLSMDLPEELAVAVEANAVEQITGVTTNCSGITYPQGGWLCPAELTRNVLELAQQQGLQIYYQYQLQDLSRKDDCWLLTFAGDQQATHSVVVLANGHQISRFSQTSSLPVYSVAGQVSHIPTTPELAKLKQVLCYDGYLTPQNPANQHHCIGASYHRGSEETAYSEDNQQQNRQRLIDCFPHAQWAKTVDVSKKEARCGVRCATRDHLPMVGNVPDYEATLVEYASLAEQKDKAVSAPVFDDLFMFAALGSRGLCSAPLCAEILAAQMSDEPIPMDASTLAALNPNRLWVRKLLKGKAVKAG | not soluble |
| MRSQRVFTTIDTHTGGNPTRTLISGLPKLIGETMAEKMLHMKKEYDWIRKLLMNEPRGHDVMSGALLTDPCHPEADIGVIYIETGGYLPMCGHDTIGVCTALVESGLIPVVEPITSLKLDTPAGLVEVDIAVQDGKAKEVSFCNIPAFLLKNITVQVKDIGTIEADIAYGGNFYAIIDAKSVGLELIPENASTIIDKAIHIRNTINEKFEIIHPEYSFIRGLTHVEFYTDATHECAHVKNTVIVPPGGIDRSPCGTGTSAKLAVLYAQKEIKIGEEFIHESIVGSLFKGYVVNTTHVENIEAVITKITGSAWLMGMHKFFYNEMDPLKEGFLLIPPMEHETEDIKMAGDPNSLEHHHHHH | soluble |
